Measurements taken from the DeepSol protein solubility set.

Test: soluble on expression in E. coli; label from the status in PepcDB or PDB records

| Sequence | soluble on expression in E. coli |
| --- | --- |
| MIFMRKVVAEVSIIPLGKGASVSKYVKKAIEVFKKYDLKVETNAMGTVLEGDLDEILKAFKEAHSTVLNDVDRVVSSLKIDERKDKENTIERKLKAIGEL | soluble |
| MKKRLTESQFQEAIQGLEVGQQTIEIARGVLVDGKPQATFATSLGLTRGAVSQAVHRVWAAFEDKNLPEGYARVTAVLPEHQAYIVRKWEADAKKKQETKR | soluble |
| MGSDKIHHHHHHDNLQAPGSIKDEEKLRSWLAGYEAEAIKVLREVALSGWRYFNDASPSLKLALDEAENVLTMFVRSTSMQAKQFDMASVTDEKVMRQLGYVSFEGMSALAPSRFADYSQAQAALNRDSKDSTICDKDVPPPCALQKIDMDSIFRNEKDASRLQHLWVSYVTAIAKSKPSYNNIITISNEGAKLNGFANGGAMWRSAFDMSSKVHKAEFDLNKQIDKIYSTIQPFYQLLHAYMRRQLAGIYSNPVGLSKDGPIPAHLFGSLDGGDWSAHYEQTKPFEEESETPEAMLSAFNTQNYTTKKMFVTAYRYFKSAGFPHLPKSYWTSSIFARVWSKDMICHPAAALDMRAPNDFRVKACAQLGEPDFEQAHSLLVQTYYQYLYKDQSLLFREQASPVITDAIANAFAHLSTNPHYLYSQKLVPSEHLDIKDSVIINKLYKESLESFTKLPFTIAADNWRYELFDGTVPKNKLNDRWWEIRNKYEGVRSPQPYNTSNLDALIHNSVSQVHSPATRTLISYVLKFQILKALCQRELFWLSEGCILSEDTTEKLRETMKLGSSITWLKALEMISGKGELDAQPLLEYYEPLINWLRNTNEIDQVVVGWDGEGTP | not soluble |
| MAHHHHHHMPPLLTEVKPAGYRPQLRVCYLCGQQFGSASIGIHVPQCYQKKLSQWEVTDPAVRGPKPKHPDMVKWKGGNGASVEAINREQYQEFNSQLVACPHCARTFLPDRLPVHLRGCRGDGKVGVPSSKAKADGGGGSTPGGGKHKSEPRRAAGCRSLSPGPPLLPTCYLCGQQFGTASIGIHVPQCYEKKLAQWQNADPHSRGHPPKHPDTVNWRGRPGASPREQAEEQFQEFMNNLEECPNCSRRFLPERLVVHLRSCRPDNPPKPTSPRKAKTGGGARCPTPTTATTPADTAATKASIGGQTPRSEKQQRKQEPPTSSAGEDWIHPKRNRLTRHSTLPTESRVCPQCDAVEYDADAKFCRDCGHNFVPKPLSNSCQHCGERIPHGSRFCGTCGQPVQGASAHELTPGGPNKHASTVRRVVCPACEAISDADGNFCDNCGAALGDADLTPAPAAAGAAATPPSTRAGGSTEHKAVLYCAKCKETVEDTTAVFCEDCGGRLEALKVLTTKDDGPPLRADGTLPPSDVARLKVARASTPQRPSASEPAKTVTTPVASSVAPARPQTRNACTPIEEHTDEFPAYAEDDLVRVPCSHCGRQFASESLAKHERICCSQKKRRVFNATKQRLPEGATAAAKPSAGSQPAAPKRDWKAESESFRRALREARQVDQVLKAGGTAKDLPPPTYSTNPDYVPCPHCQRRFAPDVAARHIPRCANTVNRPKPPPRRR | soluble |
| MAHHHHHHMSIAASSARKDGPHHPSSGLTGKETLQDARKMEYRASTLEAGGNDMECLQLMETALQIRCKEYGTGSSSPELLKEACDAAERVVMKCNVLGVKLFKEGKYDVATPLFGYAMEMTGEGSFPLRKDDERRRRLRGVTLNNHGCMERHRGHFSTALDYMQQSMQCTGQQSPVAFLNISAVQVQLRLCEEAAHSAVCAIQSLGPNPEDPSLLAVAHHNLAMALELIDPPRAHEEYRLALGLAQNTISRRSEVTRTIESNMQRFVMVLHECRPGNSALTGTNSPRSSCGHTLFVSPRSCSRERSPSGRDAASRTHRVDIFPHPFAVSAKETVAKRSISRPARADAGHPPKRLTSLSPMN | not soluble |
| MAHHHHHHMMEHLNIEKEAVTYASLIAALHNPQYVLPGHTAKELEAHLPGGVSSQQHTNVGEGGGTVTEGQASGPTSNSVDLSGTKTSYEAYRQERIEAGMAWFAACHSAHRTADVFNELLYLLRAKSHWCQFNTVLVQLRGNAVVTETEWPERLSEAGEGVPPSASAAGGASPGSVTILAPRWSTWPNGKTYELLIQRARYVHQWEVMWALYEEMIATGVHGTARVYEVLLLEARSHPPQAVLAAERSGNSDGASSFLLRLYEELRRNGSDVHSFTGTVNVVNAWTRARSRSNRWQS | not soluble |
| MNDDLCYKLNYLARLILSKVNEKIKPHGVTQGQLPVLCCLHDAEGQTQAELCKNIQVEQPTMANTLRRMERDGLIFRTASDKDKRQSRVYITERTRPTVEALQEKRDEVVAAMVRHMSPEDLATFTRLLDVATKALENPETE | not soluble |
| MRVLVTGGAGFIGSSFVRYIVNTTDWEVLVYDKLTYAGRLENLHDVIDRIGFMRGDIADEEQFGRVLTEFEPDVVVNFAAETHVDRSINEPAPFMRTNIIGVFTILEAIRKRIDQIVLLHVSTDEVYGDLWNTGKEATESDPLNPSSPYSASKASGDLLIKAYGRTYGLKYRIVRPCNNYGPYQHVEKLIPRTIIRILHGKPPVIYGDGSQIRDWLYVEDTARAIHVVLEKGVDGEIYNVCGGMASTVKDIVVNILESMGKPRDYLVYGKSRPGEDRRYAMKCDKIRNLGWAPHVTLKEGLKITVKWYIENRWWWRPLLDKRYVLADHPW | soluble |
| MKILLIGASGTLGSAVKERLEKKAEVITAGRHSGDVTVDITNIDSIKKMYEQVGKVDAIVSATGSATFSPLTELTPEKNAVTISSKLGGQINLVLLGIDSLNDKGSFTLTTGIMMEDPIVQGASAAMANGAVTAFAKSAAIEMPRGIRINTVSPNVLEESW | not soluble |
| MEFDYVICEECGKEFMDSYLMDHFDLPTCDDCRDADDKHKLITKTEAKQEYLLKDCDLEKREPPLKFIVKKNPHHSQWGDMKLYLKLQIVKRSLEVWGSQEALEEAKEVRQ | soluble |
| MGSDKIHHHHHHMIEANQILAKMKNQKINYDKVLRKIISQWERDGERPKILLHSCCAPCSTYTLEFLTQYADIAIYFANPNIHPKSEYLRRAKVQEQFVNDFNNKTGASVKYIEAEYEPHKFMKMAKDKGLTEEPEGGLRCTACFEMRLEIVAKAALEHGYDYFGSAITLSPKKNAQLINELGMDVQNIYNVKYLPSDFKKNKGYERSIEMCNDYNIFRQCYCGCVFAAMKQGIDFKQINKDAQAFLQQF | not soluble |
| MENTVDAKKDSTIAFTGGRILTMDSEQKYAEAVVIRGDRIAAVGGTYILKSFPDAEIRDLKNRYLLPAFIDSHNHLSSFGCFFPTWANLIGLTEKEAILKAIRRQVRKEPGTGWIVGFGWFDARMGGADLTKKDLDEVSSDRPVLLIQTTFHQSVVNTRALGLLGINQSTPDPRCGIIFRESDGTPTGVLVEYAQAPVFKLVMEADTETLADLIEARAKELLQFGITAIHDPGATPAAEAAYRQLHAEGRLPVSVLMMPHGETLLDNRLRDRLQGQVTGTGDERLRVGPIKLFADGATAETVAFSLKIGGQTINSGCYRDDFEEMLFAATEKGFRVCVHSFGNATTDAVLTAFENAALRAPAGFEMRPRLEHVTLINALQIRRLASMGGCACIQPQFLSRAQNTKQVMLEDGKWYAYGDLVKGGVIVASSSDDPGGFMDARDPIKGSVMGSTMSDGEGNVIFPDQVLPFEQWLWMYTAGGAYAGGQEKERGILKKGMVADLVILEGSLDSKNPTVVAETWAAGKQVYTKELEHHHHHH | not soluble |
| MANWQCVKQCGACCNLDPAERPEIEDYLTPDELEIYFSMVGEGGWCVNFDHTTRECRIYSTRPRFCRVEPDIFQDMYGIESEELNDFAIECCRQQIEGVYGDRSLEMLRFDKAVGILEHHHHHH | soluble |
| MSCKPNILVLFYGYGSIVELAKEIGKGAEEAGAEVKIRRVRETLPPEFQSRIPFDKVKDIPEVTLDDMRWADGFAIGSPTRYGNMAGGLKTFLDTTAILWKDNVLYGKPVTFFTEASTVHGGHETTILTMSTYAYHFGMIIVPIGYGIPELFQTTTGGGPYGATHLGSKEELDEMERKIARFQGKRITEVAKAIKCCNK | soluble |
| MTNQLPKISEAELEIMKVLWLKSPQTANEIIEELEDPMDWKPKTIRTLINRLVQKEAVSYHQDKGRMYAYYPLVSQDNYLQVETKSLLKRFCGAAFKPLLVNFLKEEKLSSEDINELKRLLDEKTEENKRKD | not soluble |
| MNFKESRAIYLQIADRICDDILLGQYEEEGRIPSVREYASIVEVNANTVMRSYEYLQSQEVIYNKRGIGFFVASGAKMLIHSLRKEQFLKEEVGSFFRQLYTLGISIKEIEKMYYEFIQRQNQ | soluble |
